Experimental findings from patent CN111647564A (LI XIN; CHONG TUOTUO; LONG YUFEI, dated 2020) are described below.

The test concerns the target T1, LMP1重组蛋白抗原 (SEQ ID NO.2, 213-408aa of LMP1, expressed in E. coli) (Epstein-Barr virus, UniProt P29362 187-404).
T1 construct: Recombinant fragment purified with NTA buffers (a tag from the expression vector is likely but is not described); also called LMP1蛋白
T1 chain: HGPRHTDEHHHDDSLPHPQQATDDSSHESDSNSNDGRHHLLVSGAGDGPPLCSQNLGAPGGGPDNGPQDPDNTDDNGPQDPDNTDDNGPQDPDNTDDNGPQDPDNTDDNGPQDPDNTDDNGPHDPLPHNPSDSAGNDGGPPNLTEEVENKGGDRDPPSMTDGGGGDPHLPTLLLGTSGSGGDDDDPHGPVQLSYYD
The experiment in a line: non-competitive ELISA by Beatty's method, power curve model.

B1: 抗LMP1单克隆抗体 7B63B10 (secreted by hybridoma cell line 7B63B10, CCTCC NO: C2019160) (antibody, IgG2b, V domains shown)
VH: EVKLVESGGGFVQPGGSRKLSCAASGFTFSSFGMHWVRQAPEKGLEWVAYISSGSSTIYYADTVKGRFTISRDNPKNTLFLQMTSLRSEDTAMYYCARDWVLDYWGQGTTLTVSS
VL: DIVITQTPLSLPVSLGDQASVSCRSSQSLVHSNGNTYLHWYLQKPGQSPKLLIYKVSNRFSGVPDRFSGSGSGTDFTLNISRVEAEDLGVYFCSQSTHVPFTFGGGTKLEIKR
notes: Mouse (Balb/c) hybridoma antibody, Ig type IgG2b; also called LMP1 7B63B10; 本发明单克隆抗体
Take B1: the Ka worked out at 9e+09 M⁻¹.
